Experimental data taken from PMC4158420, “Crenactin from Pyrobaculum calidifontis is closely related to actin in structure and forms steep helical filaments” (Febs Letters, 2014).

Biological target: the molecule itself
Experiment: crystal structure; vapour diffusion, crenactin around 2-5 mg/ml, 100 mM phosphate/citrate pH 4.2, 200 mM lithium sulfate, 20% PEG 1000; space group P41212; 3.2 Å; ADP bound

B1: Pyrobaculum calidifontis crenactin (natural protein, UniProt A3MWN5 1-432, looked up)
chain: MGVISDAYRLKYTFGVDFGTSYVKYGPITLNEPKMVQTRGLFLRDLPESVKMRIPPDVLARGLVVGDEEVRKYLSSVRDVQRNLKYPLKDGVARRDDEEAWRVLKELARYTLAQFPVSDPEFAGWLVAVALSALAPDYMYKAIFDIYDELASEFKIYAVTILPQPLAVAIAENAVNCVIVEGGHGNIQVAPISFALIREGLVALNRGGAEANAITREILKDIGYSDIAREEYAVEVVKRAVGLVPRRLKEAIRAAKSDPDRFVTKVRLSPVVEVEIPREYAWTRFLIGEIVFDPNHEEIKSYIEQSRLRIENAVIGDVTLYGEMDVASAIITSLRNVSVEIQERVASQIILSGGAFSWRVPPGMEDVAADSVTRVKIALEEKSPALASKVEVRLVSEPQYSVWRGAVIYGYALPLSLEWSDTTREGWRFPRR
notes: crenactin, Pyrobaculum calidifontis, NCBI YP_001056518.1, residues 1-432; full-length protein with no residues added or removed after SUMO cleavage; Gene codon-optimised for E. coli, cloned into pOPINS (HIS6-SUMO-POI); the crystal holds 2 monomers per asymmetric unit, packing as a continuous filament; also called Pc crenactin; source: E. coli BL21(AI), purified (HisTrap, SUMO protease SENP1 …)
- binding result: binds
